The target in data set [1] is Cupriavidus metallidurans malonyl-CoA decarboxylase (CmMCD), residues 57-473 (Cupriavidus metallidurans). Description: not stated; oligomeric state of CmMCD in solution; method not given.
For data set [2], the target named is Rhodopseudomonas palustris malonyl-CoA decarboxylase (RpMCD), residues 8-451 (Rhodopseudomonas palustris). Description: multiangle static light scattering; oligomeric state in solution; data not shown.
Data set [3] concerns the molecule itself. Description: SEC + AUC; analytical gel filtration on Superdex 200 in 10 mM HEPES pH 7.5, 150 mM NaCl; sedimentation velocity at 30,000 rpm, 4 °C, 50 μM HsMCD in the same buffer; oligomeric state in solution. On the technique in general: SEC sorts molecules by how far they enter the pores of the column.
Data set [4] deals with the molecule itself. Description: multiangle static light scattering; oligomeric state in solution; data not shown.

As to “Cupriavidus metallidurans malonyl-CoA decarboxylase (CmMCD), residues 57-473 (enzyme)”, the stoichiometry N in data set [1] was 2.
Consider “Rhodopseudomonas palustris malonyl-CoA decarboxylase (RpMCD), residues 8-451 (enzyme)”, for which the stoichiometry N in data set [2] is 4.

B1: Wild-type human malonyl-coenzyme A decarboxylase (HsMCD), residues 40-491 (enzyme, UniProt O95822 40-491, looked up)
chain: MDELLRRAVPPTPAYELREKTPAPAEGQCADFVSFYGGLAETAQRAELLGRLARGFGVDHGQVAEQSAGVLHLRQQQREAAVLLQAEDRLRYALVPRYRGLFHHISKLDGGVRFLVQLRADLLEAQALKLVEGPDVREMNGVLKGMLSEWFSSGFLNLERVTWHSPCEVLQKISEAEAVHPVKNWMDMKRRVGPYRRCYFFSHCSTPGEPLVVLHVALTGDISSNIQAIVKEHPPSETEEKNKITAAIFYSISLTQQGLQGVELGTFLIKRVVKELQREFPHLGVFSSLSPIPGFTKWLLGLLNSQTKEHGRNELFTDSECKEISEITGGPINETLKLLLSSSEWVQSEKLVRALQTPLMRLCAWYLYGEKHRGYALNPVANFHLQNGAVLWRINWMADVSLRGITGSCGLMANYRYFLEETGPNSTSYLGSKIIKASEQVLSLVAQFQKNS
notes: Malonyl-CoA decarboxylase (MCD, E.C. 4.1.1.9), human, residues 40-491, corresponding to the mature mitochondrial form; The His6-tag is TEV-cleavable (vector pNIC28-Bsa4, GenBank EF198106); also called human MCD; Wild-type HsMCD
Consider B1, for which the “stoichiometry N” value in data set [3] turned out to be 4.

B2: HsMCD E58A/K59A/E278A/E279A/K280A quintuple surface entropy reduction (SER) mutant, residues 40-491 (enzyme, human, UniProt O95822 40-491, looked up)
chain: MDELLRRAVPPTPAYELRAATPAPAEGQCADFVSFYGGLAETAQRAELLGRLARGFGVDHGQVAEQSAGVLHLRQQQREAAVLLQAEDRLRYALVPRYRGLFHHISKLDGGVRFLVQLRADLLEAQALKLVEGPDVREMNGVLKGMLSEWFSSGFLNLERVTWHSPCEVLQKISEAEAVHPVKNWMDMKRRVGPYRRCYFFSHCSTPGEPLVVLHVALTGDISSNIQAIVKEHPPSETAAANKITAAIFYSISLTQQGLQGVELGTFLIKRVVKELQREFPHLGVFSSLSPIPGFTKWLLGLLNSQTKEHGRNELFTDSECKEISEITGGPINETLKLLLSSSEWVQSEKLVRALQTPLMRLCAWYLYGEKHRGYALNPVANFHLQNGAVLWRINWMADVSLRGITGSCGLMANYRYFLEETGPNSTSYLGSKIIKASEQVLSLVAQFQKNS
notes: Malonyl-CoA decarboxylase (MCD), human, residues 40-491 (mature mitochondrial form) with five alanine substitutions for surface entropy reduction; The His6-tag is TEV-cleavable; Crystallised with a dimer in the asymmetric unit; the tetramer is generated through a crystallographic 2-fold axis; also called Quintuple SER mutant; SER quintuple mutant
Regarding B2, the binding result in data set [3] is listed as “binds”.

B3: Agrobacterium vitis malonyl-CoA decarboxylase (AvMCD), residues 1-448 (enzyme)
chain: MAGTSFLSDLLSGVTERGRALLFSGSKARDRVVDTDIETLCEMLLSSRGEASGMAIAAEILDRWSRFNAAEAVQFLHMLSDRFGAEAAALDKAIDAYRTDKSPMAVIALHNAAEPRRQELLRRLNLAPNGTQKLVRMRERLLETKEDRADLGAVDTDFAHLFSSWFNRGFLTLQPIDWTTPAHILEKIIKYEAVHEIAGWEELRRRLAPADRRCFAFFHPRLRDDPLVFVEVALTRSIPSAIADVLDESRDHIGADTATTAVFYSISNCQDGLRGISFGNFLIKQVVEDLRRDLPGLKEFVTLSPVPGFARWISKIRDPKSGFPLSPEDRNTLVLLDDPTWPEDKARADAVERILLPLAARYFITERTPDNRPVDPVARFHLGNGARLERLNFLGDRSVKAMRQAHGLMVNYLYKLEDIETNHEALAQRGEVAASPAVKALQGKIEPI
modifications: selenomethionyl (Se-Met labeled) protein
As to B3, the “stoichiometry N” value in data set [4] was 4.

A word on the stoichiometry N: it is a count of units in the complex or per binding partner.
